Test results published in the supplement of paper PMC10567573.

B1: SMOC2 (parent)
chain: QKPLCASDGRTFLSRCEFQRAKCK
B2: FOXJ1 (parent)
chain: SAIYKWITDNFCYFRHADPTWQNS

Variants of: B1
Experiment: protein stability index of a GFP-peptide fusion (GPS, HEK-293T) (PSI 1-6); higher = more stable
Settings: c terminus: a fixed tail appended
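Note: lentivirally expressed fusions sorted by FACS into six bins by GFP to DsRed ratio, PSI derived from sequencing read proportions per bin multiplied by bin number.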

Protein stability index: each site, then its substitutions
A21: I 3.14; K 3.9; L 2.48; M 2.88; N 2.68; P 3.98; Q 3.24; R 3.18; S 3.14; T 3.4; V 2.96; W 1.85; Y 2.58
K22: A 3.02; C 2.72; D 2.9; E 2.76; F 2.65; G 3.29; H 2.31; I 2.27; L 2.11; M 2.36; N 3.07; P 2.88; Q 3; R 2.95; S 3.06; T 2.71; V 2.86; W 2.86; Y 2.46
C23: A 2.9; D 3.92; E 3.32; F 1.88; G 3.62; H 3.92; I 3.41; K 4.07; L 3.03; M 3.15; N 4; P 4.01; Q 3.91; R 4.18; S 3.69; T 2.84; W 2.34; Y 1.85
K24: A 3; C 1.98; D 3.35; E 3.19; F 1.92; G 2.95; H 2.76; I 2.23; L 2.5; M 2.62; N 2.48; P 2.83; Q 2.64; R 1.74; S 2.88; T 3.18; V 2.62; W 2.36; Y 2.49

Variants of: B2
Experiment: as above
Settings: c terminus: a fixed tail appended

Protein stability index, by site and new letter:
S1: A 3.31; C 3.86; D 3.17; E 3.4; F 3.6; G 3.32; H 2.92; I 4.71; K 3.58; L 2.55; M 3.02; N 2.5; P 2.9; Q 2.31; T 3.01; V 2.43; W 3.8; Y 2.05
A2: C 3.04; E 1.44; F 4.1; G 2.87; H 3.1; I 3.56; K 2.72; L 2.45; N 2.25; P 3.53; Q 2.49; R 2.52; V 2.4; W 2.53; Y 2.04
I3: A 2.42; C 4.05; D 2.83; E 1.67; F 1.87; H 1.98; K 1.84; L 2.36; M 3.21; N 1.6; P 2.06; Q 2.1; R 1.78; S 1.21; T 1.7; V 3.81; W 2.41; Y 3.11
Y4: A 1.47; C 2.04; D 2.24; E 2.99; F 2.59; H 2.58; I 2.52; L 2.95; N 2.71; P 2.27; Q 2.97; S 2.68; T 1.52; W 2.97
K5: A 2.97; C 2.24; D 3.42; E 1.81; F 2.91; G 3.71; H 3.79; I 3.27; L 2.73; M 3; N 3.19; P 1.26; Q 2.99; R 3.05; S 3.33; T 2.46; V 3.36; W 2.78; Y 3.64
W6: A 1.66; C 2.1; D 2.12; E 2.27; F 2.43; G 1.67; H 2.2; I 3.22; K 1.22; M 3.3; N 2.71; P 2.13; Q 2.07; R 1.86
